Measurements as given in the supplement of paper PMC5998384.

How the values were obtained:
[1] = system: HeLa Kyoto; assay: solubility in G1/S (NP-40 vs SDS abundance) (log2 ratio); higher = more soluble; details: cell cycle stage: G1/S
[2] = system: HeLa Kyoto; assay: melting temperature (median over replicates), in situ; higher = more thermally stable
[3] = system: HeLa Kyoto; assay: solubility change mitosis vs G1/S (difference of NP-40 vs SDS log2 ratios) (log2 ratio difference); higher = more soluble in mitosis
[4] = system: HeLa Kyoto; assay: thermal stability score vs G1/S (z-score of summed log2 fold changes over temperatures); higher = more thermally stable than in G1/S
[5] = cell cycle stage: early G1 (4.5 h after nocodazole release)
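Throughout, for melting temperature (median over replicates), in situ: HeLa Kyoto cells synchronized by double thymidine or nocodazole block, proteins quantified by TMT10plex mass spectrometry, three independent biological replicates.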
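Throughout, for solubility change mitosis vs G1/S (difference of NP-40 vs SDS log2 ratios): synchronized HeLa Kyoto cells (double thymidine block for G1/S, nocodazole release for mitosis), protein amounts in NP-40 versus SDS lysates quantified by mass spectrometry, three biological replicates.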
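Throughout, for solubility in G1/S (NP-40 vs SDS abundance): HeLa Kyoto cells arrested at G1/S by double thymidine block, proteins quantified by TMT10plex mass spectrometry in mild NP-40 versus SDS extracts, three biological replicates.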
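Throughout, for thermal stability score vs G1/S (z-score of summed log2 fold changes over temperatures): synchronized HeLa Kyoto cells, proteins quantified by TMT10plex mass spectrometry, three biological replicates, mitosis taken 0.5 h after nocodazole release, G1/S directly after double thymidine block.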

| Sequence | solubility in G1/S (log2) [1] | melting temperature ([2]; cell cycle stage: G1/S) | melting temperature ([2]; cell cycle stage: mitosis) | solubility change mitosis (log2) [3] | thermal stability score [4, 5] | thermal stability score ([4]; cell cycle stage: mitosis) |
| --- | --- | --- | --- | --- | --- | --- |
| MGRRSTSSTKSGKFMNPTDQARKEARKRELKKNKKQRMMVRAAVLKMKDPKQIIRDMEKLDEMEFNPVQQPQLNEKVLKDKRKKLRETFERILRLYEKENPDIYKELRKLEVEYEQKRAQLSQYFDAVKNAQHVEVESIPLPDMPHAPSNILIQDIPLPGAQPPSILKKTSAYGPPTRAVSILPLLGHGVPRLPPGRKPPGPPPGPPPPQVVQMYGRKVGFALDLPPRRRDEDMLYSPELAQRGHDDDVSSTSEDDGYPEDMDQDKHDDSTDDSDTDKSDGESDGDEFVHRDNGERDNNEEKKSGLSVRFADMPGKSRKKKKNMKELTPLQAMMLRMAGQEIPEEGREVEEFSEDDDEDDSDDSEAEKQSQKQHKEESHSDGTSTASSQQQAPPQSVPPSQIQAPPMPGPPPLGPPPAPPLRPPGPPTGLPPGPPPGAPPFLRPPGMPGLRGPLPRLLPPGPPPGRPPGPPPGPPPGLPPGPPPRGPPPRLPPPAPPGIPPPRPGMMRPPLVPPLGPAPPGLFPPAPLPNPGVLSAPPNLIQRPKADDTSAATIEKKATATISAKPQITNPKAEITRFVPTALRVRRENKGATAAPQRKSEDDSAVPLAKAAPKSGPSVPVSVQTKDDVYEAFMKEMEGLL [WBP11] | 0.135 | 55.4 °C | 53.8 °C | 0.186 | -1.77 | -3.87 |
| MGRTVVVLGGGISGLAASYHLSRAPCPPKVVLVESSERLGGWIRSVRGPNGAIFELGPRGIRPAGALGARTLLLVSELGLDSEVLPVRGDHPAAQNRFLYVGGALHALPTGLRGLLRPSPPFSKPLFWAGLRELTKPRGKEPDETVHSFAQRRLGPEVASLAMDSLCRGVFAGNSRELSIRSCFPSLFQAEQTHRSILLGLLLGAGRTPQPDSALIRQALAERWSQWSLRGGLEMLPQALETHLTSRGVSVLRGQPVCGLSLQAEGRWKVSLRDSSLEADHVISAIPASVLSELLPAEAAPLARALSAITAVSVAVVNLQYQGAHLPVQGFGHLVPSSEDPGVLGIVYDSVAFPEQDGSPPGLRVTVMLGGSWLQTLEASGCVLSQELFQQRAQEAAATQLGLKEMPSHCLVHLHKNCIPQYTLGHWQKLESARQFLTAHRLPLTLAGASYEGVAVNDCIESGRQAAVSVLGTEPNS [PPOX] | 0.0337 | 53.3 °C | 54 °C | -0.0988 | 0.0829 | -0.0946 |
| MGSKGVYQYHWQSHNVKHSGVDDMVLLSKITENSIVENLKKRYMDDYIFTYIGSVLISVNPFKQMPYFGEKEIEMYQGAAQYENPPHIYALADNMYRNMIIDRENQCVIISGESGAGKTVAAKYIMSYISRVSGGGTKVQHVKDIILQSNPLLEAFGNAKTVRNNNSSRFGKYFEIQFSPGGEPDGGKISNFLLEKSRVVMRNPGERSFHIFYQLIEGASAEQKHSLGITSMDYYYYLSLSGSYKVDDIDDRREFQETLHAMNVIGIFAEEQTLVLQIVAGILHLGNISFKEVGNYAAVESEEFLAFPAYLLGINQDRLKEKLTSRQMDSKWGGKSESIHVTLNVEQACYTRDALAKALHARVFDFLVDSINKAMEKDHEEYNIGVLDIYGFEIFQKNGFEQFCINFVNEKLQQIFIELTLKAEQEEYVQEGIRWTPIEYFNNKIVCDLIENKVNPPGIMSILDDVCATMHAVGEGADQTLLQKLQMQIGSHEHFNSWNQGFIIHHYAGKVSYDMDGFCERNRDVLFMDLIELMQSSELPFIKSLFPENLQADKKGRPTTAGSKIKKQANDLVSTLMKCTPHYIRCIKPNETKKPRDWEESRVKHQVEYLGLKENIRVRRAGYAYRRIFQKFLQRYAILTKATWPSWQGEEKQGVLHLLQSVNMDSDQFQLGRSKVFIKAPESLFLLEEMRERKYDGYARVIQKSWRKFVARKKYVQMREEASDLLLNKKERRRNSINRNFIGDYIGMEEHPELQQFVGKREKIDFADTVTKYDRRFKGVKRDLLLTPKCLYLIGREKVKQGPDKGLVKEVLKRKIEIERILSVSLSTMQDDIFILHEQEYDSLLESVFKTEFLSLLAKRYEEKTQKQLPLKFSNTLELKLKKENWGPWSAGGSRQVQFHQGFGDLAVLKPSNKVLQVSIGPGLPKNSRPTRRNTTQNTGYSSGTQNANYPVRAAPPPPGYHQNGVIRNQYVPYPHAPGSQRSNQKSLYTSMARPPLPRQQSTSSDRVSQTPESLDFLKVPDQGAAGVRRQTTSRPPPAGGRPKPQPKPKPQVPQCKALYAYDAQDTDELSFNANDIIDIIKEDPSGWWTGRLRGKQGLFPNNYVTKI [MYO1E] | -0.131 | 49.6 °C | 49.5 °C | -0.207 | -0.0451 | 1.13 |
| MGSRASTLLRDEELEEIKKETGFSHSQITRLYSRFTSLDKGENGTLSREDFQRIPELAINPLGDRIINAFFPEGEDQVNFRGFMRTLAHFRPIEDNEKSKDVNGPEPLNSRSNKLHFAFRLYDLDKDEKISRDELLQVLRMMVGVNISDEQLGSIADRTIQEADQDGDSAISFTEFVKVLEKVDVEQKMSIRFLH [CHP1] | 0.256 | 51.8 °C | 52.6 °C | -0.016 | -0.997 | 0.839 |
| MGSRDHLFKVLVVGDAAVGKTSLVQRYSQDSFSKHYKSTVGVDFALKVLQWSDYEIVRLQLWDIAGQERFTSMTRLYYRDASACVIMFDVTNATTFSNSQRWKQDLDSKLTLPNGEPVPCLLLANKCDLSPWAVSRDQIDRFSKENGFTGWTETSVKENKNINEAMRVLIEKMMRNSTEDIMSLSTQGDYINLQTKSSSWSCC [RAB29] | 0.0397 | 53 °C | 52.9 °C | -0.119 | -0.342 | -0.372 |
| MGSSKKHRGEKEAAGTTAAAGTGGATEQPPRHREHKKHKHRSGGSGGSGGERRKRSRERGGERGSGRRGAEAEARSSTHGRERSQAEPSERRVKREKRDDGYEAAASSKTSSGDASSLSIEETNKLRAKLGLKPLEVNAIKKEAGTKEEPVTADVINPMALRQREELREKLAAAKEKRLLNQKLGKIKTLGEDDPWLDDTAAWIERSRQLQKEKDLAEKRAKLLEEMDQEFGVSTLVEEEFGQRRQDLYSARDLQGLTVEHAIDSFREGETMILTLKDKGVLQEEEDVLVNVNLVDKERAEKNVELRKKKPDYLPYAEDESVDDLAQQKPRSILSKYDEELEGERPHSFRLEQGGTADGLRERELEEIRAKLRLQAQSLSTVGPRLASEYLTPEEMVTFKKTKRRVKKIRKKEKEVVVRADDLLPLGDQTQDGDFGSRLRGRGRRRVSEVEEEKEPVPQPLPSDDTRVENMDISDEEEGGAPPPGSPQVLEEDEAELELQKQLEKGRRLRQLQQLQQLRDSGEKVVEIVKKLESRQRGWEEDEDPERKGAIVFNATSEFCRTLGEIPTYGLAGNREEQEELMDFERDEERSANGGSESDGEENIGWSTVNLDEEKQQQDFSASSTTILDEEPIVNRGLAAALLLCQNKGLLETTVQKVARVKAPNKSLPSAVYCIEDKMAIDDKYSRREEYRGFTQDFKEKDGYKPDVKIEYVDETGRKLTPKEAFRQLSHRFHGKGSGKMKTERRMKKLDEEALLKKMSSSDTPLGTVALLQEKQKAQKTPYIVLSGSGKSMNANTITK [SART1] | -0.654 | 50.8 °C | 51.6 °C | 0.448 | 0.893 | 3.51 |
| MGSSKKVTLSVLSREQSEGVGARVRRSIGRPELKNLDPFLLFDEFKGGRPGGFPDHPHRGFETVSYLLEGGSMAHEDFCGHTGKMNPGDLQWMTAGRGILHAEMPCSEEPAHGLQLWVNLRSSEKMVEPQYQELKSEEIPKPSKDGVTVAVISGEALGIKSKVYTRTPTLYLDFKLDPGAKHSQPIPKGWTSFIYTISGDVYIGPDDAQQKIEPHHTAVLGEGDSVQVENKDPKRSHFVLIAGEPLREPVIQHGPFVMNTNEEISQAILDFRNAKNGFERAKTWKSKIGN [PIR] | 0.288 | 51.8 °C | 51.6 °C | -0.0437 | -1.49 | -1.89 |
